Laboratory results taken from the DeepSol protein solubility set.

Experiment: soluble on expression in E. coli; label from the status in PepcDB or PDB records

Row | Sequence | soluble on expression in E. coli
1 | AHHHHHHGSKYDVVVVGSGVAGPIVARDVAKAGFSVLLVDKKPAIGTPKQCAEGINVNVFKEFDIPYDKRFINREIYGARIYSPSGYTAELRYDKVSGVILERKVFDKMLAYYAAKAGADVWARTEVIDLLRKEGKIMGVKAKHEGELVEIEAKIIVAADGVESTVARLAGINTYAPPHEFDSAYEYEMIIEGYDPDLIHLWFGNEIAPRGYVWVFPKDEDRANVGIGINSDNEKTAKYYLDKWLKENNIPTKKILEINVGLVPVGGFVRELVKENVAVVGDAARQVNPVHGGGMYEAMKAANILAKWIVKALEEENLELLKNYTKEWWEVEGPKMERLLKLRRAMEKLTDEDIDVFVQLLGGTDLEKLAGGNYFEVVKALMKHPKVLMSKRRLEILKALL | soluble
2 | AHHHHHHGSPITKVTRNYQITIPAEIRKALGIKEGELLEVRLENGKIIIERLKKERKTLKLGKKLTLEEIEKAIEEGMKQCMQMHAVIDTNVLIYDTFSDSEFHKESRSLLNSLDRWYIPSIVLQEYVWFFRSQGFSSREAKIMLSEYISDPRFRGLVEDHNVILRAIDILERENLSLSRFNDMIILVHAIEKGTLATFDQKLRKLARKLSVEILP | soluble
3 | AHHHHHHGSPKIGIIGGSGVYGIFEPKETVKVHTPYGRPSAPVEIGEIEGVEVAFIPRHGKYHEFPPHEVPYRANIWALHELGVERVIAVNAVGSLKEEYKPGDIVIIDQFIDFTKKREYTFYNGPRVAHISMADPFCPELRRIFIETAKELNLPVHEKGTYICIEGPRFSTRAESRMFRQFADVIGMTLVPEVNLARELGMCYVNISTVTDYDVWAEKPVDAQEVLRVMKENEEKVQKLLKRAIPKIPEERKCGCADVLKTMFV | not soluble
4 | AHHHHHHGSVSKPHGGKLIRRIAAPRTRERILSEQHEYPRVQIDHGRAIDLENIAHGVYSPLKGFLTREDFESVLDYMRLSDDTPWTIPIVLDVGEPTFEGGDAILLYYENPPIARMHVEDIYTYDKKEFAVKVFKTDDPNHLGVARVYSMGKYLVGGGIELLNELPNPFAKYTLRPVETRILFKERGWKTIVAFQTRNVPHLGHEYVQKAALTFVDGLFINPVLGRKKKGDYKDEVIIKAYYLIMKYCSNTTHHAIMRKTSTSSQT | not soluble
5 | AHHHHHHGSYLSIGTLLHRPLSSNLCIAYEIATPAIYLSPGYFTTFPATYDEILLIVSTSLAFPYVWV | soluble
6 | AHHHHHHHRSDAAVIVVGAGPAGMMLAGELRLAGVEVVVLERLVERTGESRGLGFTARTMEVFDQRGILPRFGEVETSTQGHFGGLPIDFGVLEGAWQAAKTVPQSVTETHLEQWATGLGADIRRGHEVLSLTDDGAGVTVEVRGPEGKHTLRAAYLVGCDGGRSSVRKAAGFDFPGTAATMEMYLADIKGVELQPRMIGETLPGGMVMVGPLPGGITRIIVCERGTPPQRRETPPSWHEVADAWKRLTGDDIAHAEPVWVSAFGNATRQVTEYRRGRVILAGDSAHIHLPAGGQGMNTSIQDAVNLGWKLGAVVNGTATEELLDSYHSERHAVGKRLLMNTQAQGLLFLSGPEVQPLRDVLTELIQYGEVARHLAGMVSGLEITYDVGTGSHPLLGKRMPALELTTATRETSSTELLHTARGVLLDLADNPRLRARAAAWSDRVDIVTAVPGEVSATSGLRDTTAVLIRPDGHVAWAAPGSHHDLPMALERWFGAPLTG | soluble
7 | AIAASSTDQNLMDLSDKDTREKLSFWDRRVDPMAPLTDRQTDSILELRAAAEETLLPAELPIEDICSLSSRSLRSSFTAALPESTEEVLLQGFQMLELHNHRIETAQQFFSWFSKLQVQMDQDEASKYRKTRDVLNGYQEQCDAILNDVNTALDHLDSLQKQYLFVSTKTGTLHEACEQLLKEQSELVDLAESIQEKLSYFNELENINTKLNSPTLSVNSEGFVPMLSKLDECIEYVSSHPNFKDYPVYLTKFKQCLSKAMQLIKSHTVNTLQNLTGQLSKRDPLGAPSA | not soluble
8 | AIADFSENASGIPAEELAFPEIIELNVGGQVYITRYLTLTSVPDSLLWKMFSQKSSKDLARDTKGRFFIDRDGFLFRYILDYMRDQQLVLPEHFPEQGRLQREAEFFNLPELVQLLAPKISKQNTLGDDGCQTDQDESSPGANITCNLSSLGAYSSLGAATADGQRSGFITIGCRGSYTLGRDCQTDAKFRRVARIMVCGKTSLAKEVFGETLNESHDPDRQPDRYTSRYYLKFTSLEQAFDRLADAGFHMVACNSTGTCAFAHVQTDDKIWTSYNEYVFYRE | soluble
9 | AIAPDESAQVRFLIVGRTGWIANMVAELLEQRGERYAFASFRLEQREACELELDALRPQRVLNCAGVTGRPNVDWCEDHRRETVRSNVLGVLNLADCCASRGIHLTNFATGCLYHYDDGEHRPTAEGGRPFTEDDPPNFFGSYYSRTKAMVEELLRSAFDNVLILRLRMPVSDDLSPRSFVAKIARYEKVVNIPNSMTVLTELLPVALDMSERGLTGVYNFTNPGSISHNEVLELYRKYIDPKFQWKNFTLEEQAKILKAGRSNCELDVRKLLRDNPGAQIREVHAAMEEVFRRMQAKGVKPLAAP | soluble
10 | AIARGHGTYMDEDRLTASVAGQVERVNKLICVKPLKTRYNGEVGDVVVGRITEVQQKRWKVETNSRLDSVLLLSAVNLPGGELRRRSTQDELAMRDYLQEGDLISAEVQSIFSDGALSLHTRSLKYGKLGQGVLVYVSPSLVKRQKTHFHNLPCGASLILGNNGYVWLSPTPALQEEQAGGFYTSMEPVSLSDREVVSRLRNCLLALANQKVLLFDTSVLYCYEASLQHQIKDILKPEIMEEIVLETRQRLMEHEG | soluble
11 | AIAVQKLENIPALVHLKEKNIISIRVFLQGRSIVGIQLNYNDNEDGQVYGSTAGKEMVARLSKEEHIIGVEGTYNPSALTQIIFTTNQPRQLMVGYHVGNYQYSSYPDDPSLVLKGACVSWRAGGIKSILFLWGSENSSCVKYGHSG | soluble
12 | AIHAVCVLKGDSPVTGTIHLKEEGDMVTVTGEITGLTPGKHGFHVHEFGDNTNGCTSAGGHFNPHGKEHGAPEDENRHAGDLGNVVAGEDGKAVINMKDKLVKLTGPDSVIGRTLVVHVDEDDLGRGGHEQSKITGNAGGRLACGVIGITKE | soluble
13 | AINQANRSVCITTPYFVPSADLLATLKMTAQRGIKVDIIIPKKNDSLMVQWASRAFYGELLEAGVQIHEFDGGLLHTKSVVIDQQFCLVGTVNLDMRSLWLNFELTLAVDDLEFTQQMHWLQQQYIDQSHSVVYAEWEQRPWYNRFLERVFYLFNPLL | not soluble
14 | AKDDKVTVLSIERGNKLVYLEKLGLRGDQFYYKIERIRESNGVVYIYHTSYIPEQYINANYPNLEYYSSIYNRFKLDYHIHMNDEHFEEINEIVFPTPEHAASVLGVDEQFPTVLQTKITKLESTGQVLEYSETYKRSDYYKIKFISCDRDH | not soluble
15 | AKGSTNHRALTGVIFEPFEEVKKELDLVPTVPQASLARQKYVDESESAVNEQINVEYNVSYVYHAMFAYFDRDNVALRGLAKFFKESSEEEREHAEKLMEYQNKRGGKVKLQSIVMPLSDFDHADKGDALHAMELALSLEKLTNEKLLNLHSVATKNGDVQLADFVETEYLGAQVEAIKRISEYVAQLRRVGKGHGVWHFDQMLLHEGGDAA | soluble
16 | AKKIGLFYGTQTGKTESVAEIIRDEFGNDVVTLHDVSQAEVTDLNDYQYLIIGCPTENIGELQSDWEGLYSELDDVDFNGKLVAYFGTGDQIGYADNFQDAIGILEEKISQRGGKTVGYWSTDGYDFNDSKALRNGKFVGLALDEDNQSDLTDDRIKSWVAQLKSEFGL | soluble
17 | AKLLPKLQKQNLSDSAQQIAQERGLGNSSQRKVYLPIIRAYRVGPELIDWTDGKNLRELGIYRQTGCYIERIRRNGILAHPDGDAILQEGDEIALVGFPDSHARLDPSFRNGKEVFDRNLLDLRIVEEEIVVKSDAIAGKRLSDLNLSEFGCFLNRVVRAQIEMPMDLDIVLAKGDVLQVSGEKSRVHGLAEKIGFISIHSQMAD | not soluble
18 | AKTEQQIADIVNRTITPLMQEQAIPGMAVAIIYEGKPYYFTWGKADIANNHPVTQQTLFELGSVSKTFNGVLGGDAIARGEIKLSDPVTKYWPELTGKQWRGISLLHLATYTAGGLPLQIPDDITDKAALLRFYQNWQPQWTPGAKRLYANSSIGLFGALAVKPSGMSYEEAMTRRVLQPLKLAHTWITVPQSEQKNYAWGYREGKPVHVSPGQLDAEAYGVKSSVIDMARWVQANMDASHVQEKTLQQGIELAQSRYWRIGDMYQGLGWEMLNWPLKADSIINGSDSKVALAALPAVEVNPPVPAVKASWVHKTGSTGGFGSYVAFVPEKNLGIVMLANKSYPNPVRVEAAWRILEKLQ | soluble
19 | ALESARAGYWEWNVENGTILIDRQWAVISGYNSADFDMLTMEQWRELCHPADLGVVTKSIEELLDGSMERLELELRVRHKNGEWIRVLDCGKVTGRSKNGKPSCLTGSRQALASLHDK | soluble
20 | ALSPPRRKSFKKWTPPRSPFNLVQEILFHDPWKLLIATIFLNRTSGKMAIPVLWEFLEKYPSAEVARAADWRDVSELLKPLGLYDLRAKTIIKFSDEYLTKQWRYPIELHGIGKYGNDSYRIFCVNEWKQVHPEDHKLNKYHDWLWENHEKLSLS | soluble
21 | AMAISITCPPPMSVEHADIWVKSYSLYSRERYICNSGFKRKAGTSSLTECVLNKATNVAHWTTPSLKCIRDPALVHQRPAPPSTVTTAGVTPQPESLSPSGKEPAAS | soluble
22 | AMDSIAKRPRTRLSPLKRKQQLMEIALEVFARRGIGRGGHADIAEIAQVSVATVFNYFPTREDLVDEVLNHVVRQFSNFLSDNIDLDLHAKENIANITNAMIELVVQDNHWLKVWFEWSASTRDEVWPLFVTTNRTNQLLVQNMFIKAIERGEVCDQHNPEDLANLFHGICYSLFVQANRTNNTAELSKLVSSYLDMLCIYKREHE | soluble
23 | ANGFHYTVGFNLSDYQSEVTKFDNESKELGNWYVGQKQGEIWGYETYGLFQSEQEIAGAANQDKVSGGIKLMPGDIRFVDRNNDGVIDWGDNTVDNPGDKKIIGNSTPRYHYGINLGADWKGFDLGIFFQGVGKRDLYLPGTSFRSHYGSEWQVPSAYNNDYWTEENTGAYFPRARFNGGSAINQAQTRYMVDASYCRLKSLSIGYTLPKVLTQKASIEKIRIYFTGENLFTISDTPDGLDPELDNPYTYPMQRSLSVGLSLTF | not soluble
24 | ANKMALLIDGPNMLRKEFNVDLDKVRDALEQFGDIVVGRVYLNQYASDKLIEAIANQGFEPRISAGDVDVEMAVEGTELIFNKNIDTIVYMTRDADFLPAIRKAKERGKQIIVVGAEPGFSTAIQNIADHVIRVEEDFE | not soluble
25 | ANKNKGFEGVAWDPRRQQLLLGEERPPALYTWKSDGSNVLKGDKQSLLSRALDMRNLSSLSIDPRTGHMLALSADSHMLLEVDEQGNQVSFMTLLGGMNGLKD | not soluble
26 | APEERDLTQEQTEKLLQFQDLTGIESMDQCRHTLEQHNWNIEAAVQDRLNEQEGVPSVFNPPPSRPLQVNTADHRIYSYVVSRPQPRGLLGWGYYLIMLPFRFTYYTILDIFRFALRFIRPDPRSRVTDPVGDIVSFMHSFEEKYGRAHPVFYQGTYSQALNDAKRELRFLLVYLHGDDHQDSDEFCRNTLCAPEVISLINTRMLFWACSTNKPEGYRVSQALRENTYPFLAMIMLKDRRMTVVGRLEGLIQPDDLINQLTFIMDANQTYLVSERLEREERNQTQVLRQQQDEAYLASLRADQEKERKKREERERKRRKEEEVQQQKLAEERRRQNLQEEKERKLECLPPEPSPDDPESVKIIFKLPNDSRVERRFHFSQSLTVIHDFLFSLKESPEKFQIEANFPRRVLPCIPSEEWPNPPTLQEAGLSHTEVLFVQDLTDE | soluble
27 | APPGPPASGPCADLQSAINAVTGGPIAFGNDGASLIPADYEILNRVADKLKACPDARVTINGYTDNTGSEGINIPLSAQRAKIVADYLVARGVAGDHIATVGLGSVNPIASNATPEGRAKNRRVEIVVN | soluble
